Experimental data from PMC6044691 (ACS Omega, 2017).

Tests used:
AUC = target: the molecule itself; test: AUC
crystal structure = target: the molecule itself; test: crystal structure

Protein	stoichiometry N (AUC)	binding result (crystal structure)
N-terminal truncated Z,Z-farnesyl diphosphate synthase (ΔzFPS) (enzyme, Solanum habrochaites, UniProt B8XA40 71-303, looked up) MLDEALMPKHIALIMDGNRRWAKDKGLDVSEGHKHLFPKLKEICDISSKLGIQVITAFAFSTENWKRAKGEVDFLMQMFEELYDEFSRSGVRVSIIGCKTDLPMTLQKCIALTEETTKGNKGLHLVIALNYGGYYDILQATKSIVNKAMNGLLDVEDINKNLFDQELESKCPNPDLLIRTGGDQRVSNFLLWQLAYTEFYFTKTLFPDFGEEDLKEAIINFQQRHRRFGGHTY	2	–
ΔzFPS-H103Y mutant (enzyme, Solanum habrochaites, UniProt B8XA40 71-303, looked up) MLDEALMPKHIALIMDGNRRWAKDKGLDVSEGYKHLFPKLKEICDISSKLGIQVITAFAFSTENWKRAKGEVDFLMQMFEELYDEFSRSGVRVSIIGCKTDLPMTLQKCIALTEETTKGNKGLHLVIALNYGGYYDILQATKSIVNKAMNGLLDVEDINKNLFDQELESKCPNPDLLIRTGGDQRVSNFLLWQLAYTEFYFTKTLFPDFGEEDLKEAIINFQQRHRRFGGHTY	–	binds
